{"source": "patent US20120052092A1", "about": "(IMPERIAL INNOVATIONS, published 2012)", "binders": {"B1": {"name": "fH67 (CCPs 6 and 7 of factor H) (other)", "chain": "TLKPCDYPDIKHGGLYHENMRRPYFPVAVGKYYSYYCDEHFETPSGSYWDHIHCTQDGWSPAVPCLRKCYFPYLENGYNQNYGRKFVQGKSIDVACHPGYALPKAQTTVTCMENGWSPTPRCI", "notes": "domain: CCPs 6 and 7; also called CCPs 67; Factor H domains 6 & 7"}}, "biological_target": "T1, factor H binding protein (wild type, variant 1) (Neisseria meningitidis, UniProt E6MV22 20-274)", "T1 sequence": "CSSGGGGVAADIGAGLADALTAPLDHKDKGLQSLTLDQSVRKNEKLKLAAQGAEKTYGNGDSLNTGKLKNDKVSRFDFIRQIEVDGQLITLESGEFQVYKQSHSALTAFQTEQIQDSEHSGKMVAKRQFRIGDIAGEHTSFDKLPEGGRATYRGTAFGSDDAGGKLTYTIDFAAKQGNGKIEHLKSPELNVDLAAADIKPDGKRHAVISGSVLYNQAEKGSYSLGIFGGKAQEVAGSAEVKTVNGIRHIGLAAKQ", "test": "derived from binding studies (SPR)", "data": [{"binder": "B1", "values": [{"measurement": "ΔG (calculated from KD)", "result": -11, "unit": "kcal/mol"}]}]}
